According to PMC10693867 (Journal for Immunotherapy of Cancer, 2023):

Target: CD1d(endogenous lipid)-β2M complex, as crystallized with VHH1D17 (Homo sapiens, UniProt P15813;P61769)

B1: VHH1D5 (VHH)
VHH: EVQLVESGGGLVQAGGSLRLSCAASGSSFSSYTMGWFRQAPGKEREIVAGIRWSDESPIYADSVKGRFTISRDNAKNTLYLQMNSLKPEDTAVYYCAARLVPPGIPIPRTSESMRYWGKGTLVTVSS
binding result: binds
